Assay results: patent US20250353924A1 (CITY OF HOPE, published 2025)
Residue numbers refer to the chain shown, from its start.

T1: human CD84 on the cell surface (human, UniProt Q9UIB8 22-345)
T1 construct: whole, on cells; also called Cluster of Differentiation 84
T1 sequence (looked up): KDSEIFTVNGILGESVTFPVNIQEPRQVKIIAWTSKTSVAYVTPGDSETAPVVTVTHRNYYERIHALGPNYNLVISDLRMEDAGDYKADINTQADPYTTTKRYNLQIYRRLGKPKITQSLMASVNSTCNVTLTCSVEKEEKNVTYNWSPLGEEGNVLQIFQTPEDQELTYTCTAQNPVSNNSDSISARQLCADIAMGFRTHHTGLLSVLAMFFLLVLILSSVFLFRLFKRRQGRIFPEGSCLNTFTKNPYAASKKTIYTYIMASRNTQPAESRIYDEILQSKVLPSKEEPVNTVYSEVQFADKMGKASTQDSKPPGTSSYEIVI

B1: anti-CD84 hybridoma clone 5C6 (antibody, V domains shown)
VH: QVHLQQSGAELVRPGTSVKISCKASGYTFTNYWLGWVKQRPGHGLEWIGDIFPGGGYINYHEKFKGKATLTADTSSSTAYMQLSSLTSEDSAVYFCGYGNIAMDYWGQGTSVTVSS
VL: QIILTQTPAIMSASPGEKVTMTCSASSSVSYVHWYQQKSGTSPKRWIYDTSKLASGVPARFSGSGSGTSYSLTISTMEAEDAATYYCQQWNNSPRTFGGGTKLEIK
B2: anti-CD84 hybridoma clone 7D2 (antibody, V domains shown)
VH: B1 VH with G97A, I101V
VL: B1 VL with M21V
B3: anti-CD84 hybridoma clone 8A5 (antibody, V domains shown)
VH: QIQLVQSGPELKKPGETVKISCKASGYTFTTYSMHWVKQAPGKGLKWMGWIDTATGEPTYADDFKGRFAFSLETSASTAYLQINNLNNDDTATYFCVKSAYWYFDVWGAGTTVTVSS
VL: DVLMTQTPLSLPVSLGDQASISCRSSQSIVHINGNTYLEWYLQKPGQSPKLLIYKVSNRFSGVPDRFSGSGSGTDFTLKISRVEAEDLGVYYCFQGSHVPWTFGGGTKLEIK
B4: anti-CD84 hybridoma clone 4B11 (antibody, V domains shown)
VH: EVKLVESGGGLVQPGGSLRLSCATSGFTFSDFYMDWVRQPPGKRLEWIATSRNKANDYTTEYSASVRGRFIVSRDTSQSILYLQMNALRAEDTAIYYCARDAVWEPFAYWGQGTLVTVSA
VL: EIVLTQSPTTMAASPGEKITVTCSANSSISSNSLHWYQQKPGFSPKLLIYRTSNLASGVPARFSGSGSGTSYFLTIGTMEAEDVATYYCQQGTSIPRTFGGGTKLEIK
B5: anti-CD84 hybridoma clone 2H7 (antibody, V domains shown)
VH: DVQLQESGPGLVKPSQSLSLTCTVTGYSITSDYAWNWIRQFPGNKLEWMGYISYSGTTSYNPSLKSRISITRDTSKNQFFLQLNSVTTEDTATYYCASLHYYGSRYKKLYAMDYWGQGTLATVSS
VL: NIVMTQSPKSMSMSVGERVTLSCKASDNVGTYVSWYQQKPEQSPKLLIYGASNRYTGVPDRFTGSGSATDFTLTISSVQAEDLADYHCGQSYSYPTFGGGTKLEIK
B6: anti-CD84 hybridoma clone 13D11 (antibody, V domains shown)
VH: QVTLKESGPGLLQPSQTLSLTCSFSGFSLNTSNMGVGWIRQPSGKDLEWLAHIWWDDVKRYNPALKSRLTISKDTSNNQVFLKIASVDTADTATYYCARMRGDYTMDYWGQGTSVTVSS
VL: DIVLTQSPASLAVSLGQRATLSCRASQSVSTSLYSYMHWYQQKPGQPPKLLIKYASDLESGVPARFSGSGSGTDFTLHIHPVEEEDTATYYCQHSWEIPYTFGGGTKLEIK

biological target: T1, human CD84 on the cell surface; test: flow cytometry, hybridoma supernatant on NS0 cells expressing human CD84
Protocol: Hybridoma clones selected from ELISA screening were subjected to flow cytometric analyses with NSO, a mouse myeloma cell line (ECACC), expressing human CD84 via lentiviral transduction. Half a million of transduced cells were incubated with 100 mL of hybridoma culture supernatants on ice for 30 min and washed with cold PBS containing 1% fetal bovine serum and 0.1% sodium azide.

| Molecule | Geometric Mean |
| --- | --- |
| B1 | 1690 |
| B2 | 2260 |
| B3 | 1810 |
| B4 | 1100 |
| B5 | 1550 |
| B6 | 2120 |

biological target: T1, human CD84 on the cell surface; test: flow cytometry, control on NS0 cells expressing human CD84

| Molecule | Geometric Mean |
| --- | --- |
| Ctrl | 88 |
